Kd data for two substances are collected here from publication PMC6028955.

For this test, the target named is histone H2A–H2B (from chicken blood histone core octamers) (chicken) (UniProt P02263). The test is described as follows: ITC; 25 °C, 20 mM HEPES pH 7.5, 200 mM NaCl, 1 mM DTT; histones in the cell at 20–30 μM, SSRP1 variants in the syringe at 10 times that concentration. (In general: Isothermal titration calorimetry measures the heat released or taken up as one component is titrated into another.)

full-length DdSSRP1, sequence (Q54G78 whole entry): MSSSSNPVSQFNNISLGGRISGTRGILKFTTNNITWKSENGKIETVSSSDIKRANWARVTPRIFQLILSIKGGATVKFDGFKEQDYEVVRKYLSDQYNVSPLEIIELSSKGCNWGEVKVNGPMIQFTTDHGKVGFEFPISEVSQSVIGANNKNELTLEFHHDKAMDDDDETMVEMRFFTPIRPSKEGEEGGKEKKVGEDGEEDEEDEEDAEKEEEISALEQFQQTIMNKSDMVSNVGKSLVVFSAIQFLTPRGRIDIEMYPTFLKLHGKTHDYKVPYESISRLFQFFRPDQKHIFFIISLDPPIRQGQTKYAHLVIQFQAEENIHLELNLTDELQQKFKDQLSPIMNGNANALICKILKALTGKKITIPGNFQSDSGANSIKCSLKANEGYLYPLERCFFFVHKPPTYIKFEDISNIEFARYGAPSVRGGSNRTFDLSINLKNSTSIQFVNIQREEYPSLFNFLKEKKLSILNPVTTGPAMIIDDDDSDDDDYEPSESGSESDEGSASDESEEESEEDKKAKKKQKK
DdSSRP1 containing only the ID1 region (residues 479–527), sequence (Q54G78 479-527): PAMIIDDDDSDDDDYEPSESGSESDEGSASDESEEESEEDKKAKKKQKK

The term Kd denotes the constant that tells how readily two partners part at equilibrium. For the substance “DdSSRP1 containing only the ID1 region (residues 479–527) (from UniProt Q54G78 479-527) (domain or fragment)”, the Kd is 190 nM. To “full-length DdSSRP1 (from UniProt Q54G78 1-527) (natural protein)” belongs 310 nM.
